B1: Tissue-type plasminogen activator (tPA, Actilyse, Boehringer-Ingelheim) (enzyme, human, UniProt P00750 36-562, looked up)
chain: SYQVICRDEKTQMIYQQHQSWLRPVLRSNRVEYCWCNSGRAQCHSVPVKSCSEPRCFNGGTCQQALYFSDFVCQCPEGFAGKCCEIDTRATCYEDQGISYRGTWSTAESGAECTNWNSSALAQKPYSGRRPDAIRLGLGNHNYCRNPDRDSKPWCYVFKAGKYSSEFCSTPACSEGNSDCYFGNGSAYRGTHSLTESGASCLPWNSMILIGKVYTAQNPSAQALGLGKHNYCRNPDGDAKPWCHVLKNRRLTWEYCDVPSCSTCGLRQYSQPQFRIKGGLFADIASHPWQAAIFAKHRRSPGERFLCGGILISSCWILSAAHCFQERFPPHHLTVILGRTYRVVPGEEEQKFEVEKYIVHKEFDDDTYDNDIALLQLKSDSSRCAQESSVVRTVCLPPADLQLPDWTECELSGYGKHEALSPFYSERLKEAHVRLYPSSRCTSQHLLNRTVTDNMLCAGDTRSGGPQANLHDACQGDSGGPLVCLNDGRMTLVGIISWGLGCGQKDVPGVYTKVTNYLDWIRDNMRP
notes: also called full-length tPA; recombinant human tPA

Experiment [1] deals with T1, human factor XII from plasma (Calbiochem, #233490) (human, UniProt P00748 20-615).
T1 construct: also called FXII
T1 sequence (looked up): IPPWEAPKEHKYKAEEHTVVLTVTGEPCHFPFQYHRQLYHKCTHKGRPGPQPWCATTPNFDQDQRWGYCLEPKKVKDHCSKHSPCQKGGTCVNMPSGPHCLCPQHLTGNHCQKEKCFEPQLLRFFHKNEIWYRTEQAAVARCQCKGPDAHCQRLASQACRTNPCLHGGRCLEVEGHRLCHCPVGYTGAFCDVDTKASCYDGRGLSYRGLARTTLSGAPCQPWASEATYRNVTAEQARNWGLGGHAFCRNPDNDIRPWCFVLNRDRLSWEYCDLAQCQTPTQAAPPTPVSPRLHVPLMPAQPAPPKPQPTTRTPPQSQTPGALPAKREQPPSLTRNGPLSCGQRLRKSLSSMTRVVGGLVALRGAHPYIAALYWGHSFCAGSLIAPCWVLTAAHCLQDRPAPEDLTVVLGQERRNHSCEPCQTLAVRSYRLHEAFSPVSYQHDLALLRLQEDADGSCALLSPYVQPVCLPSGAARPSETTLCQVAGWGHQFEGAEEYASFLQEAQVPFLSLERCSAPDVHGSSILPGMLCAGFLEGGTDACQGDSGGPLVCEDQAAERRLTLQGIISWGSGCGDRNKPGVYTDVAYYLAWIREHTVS
Briefly: ELISA; factor XII incubated with DXS500k or buffer immobilized, overlaid with tPA in 10 mM εACA. A general note: In an ELISA, binding on a coated surface is turned into a signal by an enzyme label.

The target in experiment [2] is T2, albumin (ICN, 160069) (bovine, UniProt P02769 25-607).
T2 construct: also called bovine serum albumin (ICN, #160069, fraction V)
T2 sequence (P02769 25-607 limits assumed): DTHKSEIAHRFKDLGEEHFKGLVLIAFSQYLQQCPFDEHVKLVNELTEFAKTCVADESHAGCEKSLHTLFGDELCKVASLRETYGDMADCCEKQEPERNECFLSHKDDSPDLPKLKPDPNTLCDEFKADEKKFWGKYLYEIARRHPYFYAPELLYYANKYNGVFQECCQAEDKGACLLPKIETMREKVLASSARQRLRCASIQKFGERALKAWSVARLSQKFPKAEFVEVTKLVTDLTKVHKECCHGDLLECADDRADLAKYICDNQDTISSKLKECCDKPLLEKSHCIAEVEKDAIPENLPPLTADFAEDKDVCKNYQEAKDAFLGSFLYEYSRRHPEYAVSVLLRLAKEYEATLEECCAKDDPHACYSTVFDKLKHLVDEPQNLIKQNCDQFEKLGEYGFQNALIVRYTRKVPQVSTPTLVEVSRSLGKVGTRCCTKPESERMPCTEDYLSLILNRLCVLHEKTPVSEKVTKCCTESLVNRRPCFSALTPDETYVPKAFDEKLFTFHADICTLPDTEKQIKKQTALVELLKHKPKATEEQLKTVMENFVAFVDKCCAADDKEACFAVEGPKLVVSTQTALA
Briefly: ELISA; protein incubated with DXS500k or buffer immobilized, overlaid with tPA in 10 mM εACA.

Experiment [3] has as its target T1, human factor XII from plasma …. Briefly: ELISA: factor XII coated, concentration series of β2GPI, detection with monoclonal antibody 2B2.
The target in experiment [4] is B1. Briefly: ELISA: tPA coated, concentration series of β2GPI, detection with monoclonal antibody 2B2.

Where “and” joins values, the source holds several entries; their conditions need not be identical. Identical values can stand only once.

Regarding B1, the binding result in experiment [1] is “binds”. Also, the “factor of increase in tPA binding (protein exposed to DXS500k against protein in buffer only)” value in experiment [2] amounted to 1.3 fold.

B2: recombinant human β2-glycoprotein I (made in insect cells) (other, UniProt P02749 20-345, looked up)
chain: GRTCPKPDDLPFSTVVPLKTFYEPGEEITYSCKPGYVSRGGMRKFICPLTGLWPINTLKCTPRVCPFAGILENGAVRYTTFEYPNTISFSCNTGFYLNGADSAKCTEEGKWSPELPVCAPIICPPPSIPTFATLRVYKPSAGNNSLYRDTAVFECLPQHAMFGNDTITCTTHGNWTKLPECREVKCPFPSRPDNGFVNYPAKPTLYYKDKATFGCHDGYSLDGPEEIECTKLGNWSAMPSCKASCKVPVKKATVVYQGERVKIQEKFKNGMLHGDKVSFFCKNKEKKCSYTEDAQCIDGTIEVPKCFKEHSSLAFWKTDASDVKPC
notes: also called recombinant β2GPI; rec. β2GPI
The term Kd denotes the equilibrium constant for the complex coming apart. High values mean a looser complex, low ones a tighter complex. For B2, the Kd in experiment [3] is 0.9 µg/mL and 20 nM; in experiment [4], 2.3 µg/mL and 51 nM.
